Test [1] deals with T1, c-MAF (Q1): fragment of c-MAF including Aa 19-208 (Homo sapiens (Human), UniProt O75444 19-208).
T1 construct: Recombinant antigen preparation used in SPR; also called c-MAF fragment
T1 sequence: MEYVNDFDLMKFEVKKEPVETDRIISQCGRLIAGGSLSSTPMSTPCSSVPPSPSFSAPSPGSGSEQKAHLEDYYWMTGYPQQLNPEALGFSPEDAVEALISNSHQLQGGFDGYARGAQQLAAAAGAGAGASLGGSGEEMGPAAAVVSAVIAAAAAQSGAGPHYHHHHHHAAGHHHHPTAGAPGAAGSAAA
The test is described as follows: SPR, Biacore T200, 25 C; antibody captured on Protein A, c-MAF (Q1) as analyte at 6.5 nM; single concentration fit, 1:1 model. Here is the method: Test measurements were conducted to confirm protein A-binding of the antibody INB-1-11-8 and to select appropriate capture levels for the kinetic measurements of the analyte. A capture level of 240 RU was chosen for the measurement with c-MAF (Q1), resulting in an expected Rmax of ca 64 RU for two 19.6 kDa antigens binding per antibody molecule. To generate sufficiently high binding signals for the peptide, a higher capture level of […] was chosen, also resulting in an expected Rmax of ca 30 RU. Serial dilutions of the antigen were injected for 180 s, followed by a 600 s buffer injection for off-rate determination (see FIG. 6). For the c-MAF fragment the molar concentrations used for the serial dilutions were calculated based on the concentrations determined by CFCA. The kinetic measurements were performed twice to confirm the binding behavior.
Based on this preliminary data, an affinity in the nM-range has been roughly estimated for the interaction. The binding is characterized by a very fast association rate and a fast dissociation rate, i.e. the binding is not very tight.

In the test “Peptide 1 (epitope …)” the target is T2, Peptide 1 (epitope 83-EQKAHLEDYYWMTGYPQQ-100 of c-MAF of human origin) conjugated to BSA (human, also: conjugated to BSA).
T2 construct: also called antigen
T2 peptide: EQKAHLEDYYWMTGYPQQ
The test is described as follows: antigen-specific ELISA: epitope peptide conjugated to BSA on the plate, anti-rabbit secondary antibody conjugated to alkaline phosphatase. Here is the method: An Antigen-specific ELISA was used to test the antibody sensitivity for the antigen. To this end, the epitope, Peptide 1, described above, was conjugated to BSA. This was attached to a the plate surface where the ELISA is performed and washed. The INB-1-11-8 c-MAF specific antibody was then applied so that it could bind to the antigen. Following, the incubation time and wash with TBST, a secondary antibody specific for rabbit antibodies and conjugated to Alkaline Phosphatase was used to score binding of the primary antibody to the antigen. Several dilutions were used to test the titer of the antibody, which is an indication of the affinity of the antibody for its antigen (FIG. 3A).
For orientation: In an ELISA, binding on a coated surface is turned into a signal by an enzyme label.

No end group written: not given here.

B1: INB-1-11-8 c-MAF specific monoclonal antibody (rabbit) (antibody, V domains shown)
VH: QSLEESGGRLVTPGTPLTLTCTASGFSLNNYPMTWVRQAPGKGLDYIGVINNSGETAYATWAKRRFTISRTSTTLYLKIASPTIEDTATYFCARGGPVSSDMWGPGTLVIVSS
VL: AQVLTQTASPVSAVVGGTVTINCQSSQSVYRGDWLAWYQQRPGQPPKLLIYGASTLASGVPSRFKGSGSGTHFTLTISDLDCDDAATYYCAGGFSGHIYDFGGGTEVVVKG
notes: Rabbit monoclonal antibody; also called Clone ID11-8; antibody INB-1-11-8
As a reminder, the Kd is a measure of binding affinity in units of concentration. Read a high Kd as a looser complex. As a reminder, the koff is the rate constant with which the complex falls apart. Lower therefore signals a long-lived complex. By kon is commonly meant a measure of how fast the partners come together. In test [1], B1 came in with a Kd of 1.1 nM, a koff of 0.0056 s⁻¹ and an on-rate (kon) of 5.3e+06 M⁻¹ s⁻¹. The binding result with Peptide 1 (epitope …) is on record as “binds”.

These data come from US20170369589A1 (INBIOMOTION S L, published 2017).
